The target of experiment [1] is T1, C-terminally 6xHis tagged mouse PTPRS (mPTPRS) ECD (Mus musculus, UniProt B0V2N1).
T1 construct: also called mPTPRS ectodomain; PTPRS ectodomain; source: HEK293T, transiently transfected, supernatant; purified (Ni-NTA, HiTrap heparin); not shown: His6, C-terminal, kept
Description: BLI; His-tagged ligand (mPTPRS ECD or hPTPRS Fn9) immobilised on anti-6xHis probes at 100 to 200 nM; antibodies or scFv-Fc fusions as analytes; Gator K buffer (0.02% BSA, 0.002% Tween-20 in PBS, pH 7.4), 37 °C; biphasic (2:1) association model. The conditions noted are these: both partners purified.

Experiment [2] has as its target T2, C-terminally 6xHis tagged mouse PTPRS (mPTPRS) ECD (mouse, UniProt B0V2N1 30-1257).
T2 chain: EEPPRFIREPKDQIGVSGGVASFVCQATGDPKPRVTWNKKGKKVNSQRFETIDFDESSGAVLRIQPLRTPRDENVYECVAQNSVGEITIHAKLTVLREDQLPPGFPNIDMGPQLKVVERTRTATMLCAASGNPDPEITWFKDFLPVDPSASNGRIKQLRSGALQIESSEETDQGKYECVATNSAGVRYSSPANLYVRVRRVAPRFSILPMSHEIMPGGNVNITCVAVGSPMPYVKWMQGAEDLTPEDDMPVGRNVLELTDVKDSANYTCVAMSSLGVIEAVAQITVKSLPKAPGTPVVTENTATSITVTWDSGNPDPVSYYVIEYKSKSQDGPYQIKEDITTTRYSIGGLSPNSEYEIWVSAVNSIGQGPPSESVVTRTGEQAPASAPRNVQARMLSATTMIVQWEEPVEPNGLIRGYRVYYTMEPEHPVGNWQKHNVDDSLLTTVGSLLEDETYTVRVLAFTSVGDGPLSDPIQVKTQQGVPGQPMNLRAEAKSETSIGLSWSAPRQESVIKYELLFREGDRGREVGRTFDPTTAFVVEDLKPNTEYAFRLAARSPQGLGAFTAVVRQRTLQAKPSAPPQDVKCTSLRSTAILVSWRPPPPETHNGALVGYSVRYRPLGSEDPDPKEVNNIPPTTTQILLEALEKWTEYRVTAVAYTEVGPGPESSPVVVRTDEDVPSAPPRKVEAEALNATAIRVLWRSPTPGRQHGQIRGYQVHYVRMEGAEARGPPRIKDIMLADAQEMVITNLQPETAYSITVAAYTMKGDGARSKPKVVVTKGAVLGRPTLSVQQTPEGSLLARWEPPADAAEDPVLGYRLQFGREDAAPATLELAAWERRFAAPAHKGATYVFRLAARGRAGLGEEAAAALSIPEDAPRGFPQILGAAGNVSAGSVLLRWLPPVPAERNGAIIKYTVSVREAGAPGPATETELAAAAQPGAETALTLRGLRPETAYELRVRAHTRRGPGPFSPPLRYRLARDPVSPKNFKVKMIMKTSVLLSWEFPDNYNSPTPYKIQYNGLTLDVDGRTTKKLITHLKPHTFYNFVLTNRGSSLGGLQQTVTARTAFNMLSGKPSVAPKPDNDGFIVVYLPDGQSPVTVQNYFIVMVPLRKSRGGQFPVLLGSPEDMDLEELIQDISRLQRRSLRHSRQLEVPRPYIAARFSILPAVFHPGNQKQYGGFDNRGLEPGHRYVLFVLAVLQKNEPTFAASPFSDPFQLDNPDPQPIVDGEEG
Description: BLI.

For experiment [3], the target named is T3, WT human PTPRS (hPTPRS) isoform 1 with a C-terminal HA tag (human, UniProt Q13332).
T3 construct: human PTPRS isoform 1, open reading frame in pcDNA3.1 (+); also called PTPRS-HA; hPTPRS-HA; source: HEK293T, transfected; in RIPA lysate (immunoprecipitation), on or in cells (flow cytometry, PLA); not shown: HA, C-terminal, kept
T3 sequence (Q13332 30-1948): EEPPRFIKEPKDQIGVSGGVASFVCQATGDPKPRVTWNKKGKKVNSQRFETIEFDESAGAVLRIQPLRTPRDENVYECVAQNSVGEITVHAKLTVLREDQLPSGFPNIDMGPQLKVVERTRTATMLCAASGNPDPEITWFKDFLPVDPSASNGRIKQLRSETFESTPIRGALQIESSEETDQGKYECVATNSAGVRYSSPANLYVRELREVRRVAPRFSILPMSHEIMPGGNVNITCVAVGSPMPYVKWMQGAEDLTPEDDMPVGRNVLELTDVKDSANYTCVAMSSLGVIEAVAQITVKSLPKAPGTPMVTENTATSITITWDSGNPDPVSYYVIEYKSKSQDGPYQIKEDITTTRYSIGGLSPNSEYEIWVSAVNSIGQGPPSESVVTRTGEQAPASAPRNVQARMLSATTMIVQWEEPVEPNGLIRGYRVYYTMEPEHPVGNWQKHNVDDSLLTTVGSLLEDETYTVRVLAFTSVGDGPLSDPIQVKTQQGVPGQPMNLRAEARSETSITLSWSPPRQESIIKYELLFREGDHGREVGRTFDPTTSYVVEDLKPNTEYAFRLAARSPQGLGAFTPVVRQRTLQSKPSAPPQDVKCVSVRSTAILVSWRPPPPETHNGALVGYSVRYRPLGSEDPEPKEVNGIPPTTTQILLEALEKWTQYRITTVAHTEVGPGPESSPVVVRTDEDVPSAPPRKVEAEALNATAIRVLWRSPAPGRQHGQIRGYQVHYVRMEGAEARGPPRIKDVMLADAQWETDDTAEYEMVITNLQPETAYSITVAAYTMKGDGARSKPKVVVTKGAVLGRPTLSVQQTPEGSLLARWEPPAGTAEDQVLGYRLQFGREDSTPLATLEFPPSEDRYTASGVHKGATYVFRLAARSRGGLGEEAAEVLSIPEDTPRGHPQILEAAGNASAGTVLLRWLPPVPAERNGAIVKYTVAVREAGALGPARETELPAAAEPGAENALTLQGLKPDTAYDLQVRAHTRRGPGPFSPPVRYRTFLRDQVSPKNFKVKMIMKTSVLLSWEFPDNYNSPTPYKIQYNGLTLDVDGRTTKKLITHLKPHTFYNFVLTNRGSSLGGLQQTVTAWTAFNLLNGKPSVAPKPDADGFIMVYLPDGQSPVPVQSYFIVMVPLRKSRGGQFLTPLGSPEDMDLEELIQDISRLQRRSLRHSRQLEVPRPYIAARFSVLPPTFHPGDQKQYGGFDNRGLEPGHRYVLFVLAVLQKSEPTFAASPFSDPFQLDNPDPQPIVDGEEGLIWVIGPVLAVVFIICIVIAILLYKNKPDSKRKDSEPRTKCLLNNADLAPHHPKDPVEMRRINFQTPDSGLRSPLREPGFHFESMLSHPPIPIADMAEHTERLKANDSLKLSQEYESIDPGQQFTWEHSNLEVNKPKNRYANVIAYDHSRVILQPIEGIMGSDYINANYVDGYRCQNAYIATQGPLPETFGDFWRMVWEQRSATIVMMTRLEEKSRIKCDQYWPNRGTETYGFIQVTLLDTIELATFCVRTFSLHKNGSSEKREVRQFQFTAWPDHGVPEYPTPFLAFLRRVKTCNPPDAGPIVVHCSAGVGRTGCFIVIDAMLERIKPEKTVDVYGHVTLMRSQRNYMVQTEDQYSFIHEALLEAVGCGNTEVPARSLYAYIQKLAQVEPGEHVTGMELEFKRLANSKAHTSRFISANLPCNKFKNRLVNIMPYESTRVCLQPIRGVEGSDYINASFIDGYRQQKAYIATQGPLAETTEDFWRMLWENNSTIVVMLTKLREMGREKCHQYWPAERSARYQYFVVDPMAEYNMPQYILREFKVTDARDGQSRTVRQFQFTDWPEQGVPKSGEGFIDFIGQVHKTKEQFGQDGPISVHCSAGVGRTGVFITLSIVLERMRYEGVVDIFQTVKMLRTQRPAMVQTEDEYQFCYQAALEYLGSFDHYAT
Description: proximity ligation; purified antibody, scFv-Fc or Fc decoy added for 30 min to the co-transfected HEK293T cells before the PLA; read-out is the loss of the PLA signal of the tagged pair. The conditions noted are these: one partner purified.

Experiment [4] has as its target T4, 6xHis-tagged hPTPRS Fn9 (residues 1117-1270) (human, UniProt Q13332 1117-1270).
T4 chain: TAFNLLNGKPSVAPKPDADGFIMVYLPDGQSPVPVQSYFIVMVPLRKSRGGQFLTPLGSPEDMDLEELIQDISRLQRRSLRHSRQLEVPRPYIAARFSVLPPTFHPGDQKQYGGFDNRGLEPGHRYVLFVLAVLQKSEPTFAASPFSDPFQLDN
Description: BLI.

The target of experiment [5] is T5, 6xHis-tagged hPTPRS Fn9 (residues 1117-1270) (Homo sapiens, UniProt Q13332).
T5 construct: human PTPRS isoform 1 (Q13332), fibronectin type III-like domain 9, residues 1117-1270, amplified from WT hPTPRS and subcloned into pHLsec; the printed primers encode a start at TAFNLLN and an end at PFQLDN (translated from the primers); also called hPTPRS Fn9His; Fn9 fragment of PTPRS; source: HEK293T, transiently transfected, supernatant
Description: BLI; His-tagged ligand (mPTPRS ECD or hPTPRS Fn9) immobilised on anti-6xHis probes at 100 to 200 nM; antibodies or scFv-Fc fusions as analytes; Gator K buffer (0.02% BSA, 0.002% Tween-20 in PBS, pH 7.4), 37 °C; biphasic (2:1) association model. The conditions noted are these: both partners purified.

Experiment [6] has as its target T4, 6xHis-tagged hPTPRS Fn9 (residues …). Description: BLI.
Experiment [7] has as its target T2, C-terminally 6xHis tagged mouse PTPRS …. Description: BLI.
Experiment [8] has as its target T3, WT human PTPRS (hPTPRS) isoform 1 with …. Description: co-IP; RIPA lysates of HEK293T cells overexpressing HA-tagged full length or truncated hPTPRS incubated with the antibody for 2 h at 4 °C, Protein G Sepharose, anti-HA blot. The conditions noted are these: one partner purified.
The target of experiment [9] is T6, PTPRS^Δ326 (hPTPRS-HA N-terminal truncation lacking Ig-like domains 1 to 3) (Homo sapiens, UniProt Q13332, point mutant).
T6 construct: human PTPRS isoform 1, N-terminal truncation lacking Ig-like domains 1 to 3, obtained from WT hPTPRS-HA by site-directed mutagenesis; source: HEK293T, transfected, in RIPA lysate; not shown: HA, C-terminal, kept
The experiment is described as above. The conditions noted are these: one partner purified.

Experiment [10] concerns the target T7, PTPRS^Δ1096 (hPTPRS-HA N-terminal truncation lacking the ECD including most of Fn8) (Homo sapiens, UniProt Q13332, point mutant).
T7 construct: human PTPRS isoform 1, N-terminal truncation lacking the ECD including most of Fn8, obtained from WT hPTPRS-HA by site-directed mutagenesis; source: HEK293T, transfected, in RIPA lysate; not shown: HA, C-terminal, kept
Described as above. The conditions noted are these: one partner purified.

Experiment [11] deals with T2, C-terminally 6xHis tagged mouse PTPRS …. Description: BLI.

Like-named read-outs stand apart in the source and are kept apart here.

B1: 22H8^IgG2b (22H8 variable regions on mouse IgG2b/κ constant regions) (antibody, V domains shown)
VH: QVQLQQSGAELARPGASVKLSCKASGYTFTSYWMQWVKQRPGQGLEWIGAIYPGDGDTRYTQKFKGKATLTADKSSSTAYMQLSSLASEDSAVYYCARRIYYGYYYAMDYWGQGTSVTVSS
VL: DIVLTQSPASLAVSLGQRATISCKASQSVDYDGDSYMNWYQQKPGQPPKLLIYAASNLESGIPARFSGSGSGTDFTLNIHPVEEEDAATYYCQQSNEDPLTFGAGTKLELK
notes: as the VH of m3 (22H8); constant region of the mouse IgG2b heavy chain (entire constant region swapped); as the VL of m3 (22H8); constant region of the mouse κ light chain; IgG2b/κ form of 22H8; source: production contracted to Viva Biotech
Take B1: the Kd in experiment [1] was found to be 38.2 nM. Further, the dissociation rate constant (koff) in experiment [2] stood at 0.06 s⁻¹.

B2: 22H8^HL-scFv-Fc (VH-linker-VL scFv of 22H8 fused to human IgG1 Fc) (scFv, V domains shown)
VH: B1 VH
VL: B1 VL
notes: as the VH of m3 (22H8); linker between VH and VL; as the VL of m3 (22H8); ORF synthesized by Genscript and subcloned into pHLsec as a C-terminal hFc fusion; also called 22H8-Fc HL; source: HEK293T, transiently transfected, supernatant; purified (Protein A); not shown: Fc (human IgG1), C-terminal, kept
For B2, the binding result in experiment [3] and in experiment [5] was “binds” each time. In experiment [4], this molecule came in with a koff of 0.0056 s⁻¹. This molecule showed a dissociation constant Kd in experiment [6] of 2.65 nM.

B3: 22H8 (mouse monoclonal antibody, IgG1/κ) (antibody, V domains shown)
VH: B1 VH
VL: B1 VL
notes: VH of 22H8; constant region of the mouse IgG1 heavy chain; VL of 22H8; constant region of the mouse κ light chain; IgG1/κ; source: production contracted to Viva Biotech
For B3, the koff in [7] came to 0.002 s⁻¹; in experiment [4] it was 0.009 s⁻¹. Moreover, the Kd in experiment [1] was determined as 13.2 ± 3.74 nM; in [6], 17.6 nM. For the same molecule, the binding result in experiment [5], in experiment [8], in experiment [9] and in experiment [10] was “binds” throughout.

B4: 49F2 (mouse monoclonal antibody, IgG1/κ) (antibody, V domains shown)
VH: EVQLVESGGDLVKPGGSLKLSCAASGFIFSSYGMSWVRQTPDKRLEWVATISSGGSDTYYPDSVKGRFTISRDNANNTLYLQMSSLKSEDTAMYYCARQVYYGLYWYFDVWGAGTTVTVSS
VL: DIVMTQSHKFMSTSVGDRVSIICKASQDVNTAVAWYQQKPGQSPKLLIYSASYRYTGVPDRFTGSGSGTDFTFTISSVQAEDLAIYYCQQHYSTPYTFGGGTKLEIK
notes: VH of 49F2; constant region of the mouse IgG1 heavy chain; VL of 49F2; constant region of the mouse κ light chain; IgG1/κ; source: production contracted to Viva Biotech
Regarding B4, in [7], the koff was determined as 0.005 s⁻¹. For the same molecule, in experiment [1], binding was put at a Kd of 25.7 ± 9.66 nM. In addition, the binding result in [8], in [9] and in [10] was “binds” each time.

B5: 13G5^IgG1 (13G5 variable regions on mouse IgG1/κ constant regions) (antibody, V domains shown)
VH: EVKLVESGGGLVQPGGSLKLSCATSGFTFSDYYMYWVRQTPEKRLEWVAYISNGGGSTYYPDTVKGRFTISRDNAKNTLYLQMSRLKSEDTAMYYCARHVYYGRNYAMDYWGQGTSVTVSS
VL: DIQMTQTTSSLSASLGDRVTISCRASQDISNYLNWYQQKPDGTVKLLIYYTSRLHSGVPSRFSGSGSGTDYSLTISNLEQEDIATYFCQQGNTLPYTFGGGTKLEIK
Regarding B5, the affinity in experiment [11], expressed as Kd, was 16.5 nM. This molecule also came in with a koff in experiment [2] of 0.003 s⁻¹.

B6: 13G5^HL-scFv-Fc (VH-linker-VL scFv of 13G5 fused to human IgG1 Fc) (scFv, V domains shown)
VH: B5 VH
VL: B5 VL
Turning to B6, the koff in experiment [4] was determined as 0.00016 s⁻¹. This molecule yielded a dissociation constant (Kd) in experiment [6] of 0.28 nM.
